Measurements reported in the RNAGym collection of RNA variant scans (doi:10.1073/pnas.2313332121).
This sample holds only a part of the variants without activity.

B1: TPR 5TU (parent)
chain: GGAUCUUCUCGAUCUAACAAAAAAGACAAAUCUGCCACAAAGCUUGAGAGCAUCUUCGGAUGCAGAGGCGGCAGCCUUCGGUGGCGCGAUAGCGCCAACGUUCUCAACUAUGACACGCAAAACGCGUGCUCCGUUGAAUGGAGUUUAUCAUG

Variants of: B1
Assay: polymerase ribozyme fitness, log enrichment relative to wild type (log ratio); higher = more active; in vitro selection for triplet polymerase activity
Outline: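 After PCR construction and transcription, each subunit's mutant library from a heterodimeric triplet polymerase ribozyme was annealed with a biotinylated primer, the partner subunit and triplets. Incubation was frozen, at −7 °C, and extended constructs were gel-excised, bound to streptavidin beads and amplified by RT-PCR, in one selection round done in triplicate. Fitness is the logarithm of a genotype's enrichment divided by that of the wild type, from inverse-variance-weighted replicate averages of Illumina-sequenced inputs and outputs. The base of the logarithm is 2, and genotypes needed ≥10 input reads and ≥1 read per output.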

**Q.** With GGAUCUUCUCGAUCUACCAAAAAAGACAAAUCUGCCACAAAGCUUGAGAGCAUCUUCGGAUGCAGAGGCGGCAGCCUUCGGUGGCGCGAUAGCGCCAAAGUUCUCAACUAUGACACGCAAAACGCGUGCUCCGUUGAAUGGAGUUUAUCAUG [A17C C99A] as the variant, how does the “polymerase ribozyme fitness (log ratio)” value read?
**A.** The value was -0.000978.

**Q.** Which “polymerase ribozyme fitness (log ratio)” value does the source give for GGAUCUUCUCGAUCUACCAAAAAAGACAAAUCUGCCACAAAGCUUGAGAGCAUCUUCGGAUGCAGAGGCGGCAGCCUUCGGUGCCGCGAUAGCGCCAACGUUCUCAACUAUGACACGCAAAACGCGUGCUCCGUUGAAUGGGGUUUAUCAUG [A17C G84C A142G] here?
**A.** The value was -3.21.

**Q.** With GGAUCUUCUCGAUCUACCAAAAAAGACAAAUCUGCCACAAAGCUUGAGAGCAUCUUCGGAUUCAGAGGCGGCAGCCUUCGGUGGCGCGAUAGGGCCAACGUUCUCAACUAUGACACGCAAAACGCGUGCUCCGUUGAAUGGAGUUUAUCAUG [A17C G62U C93G] as the variant, how does the “polymerase ribozyme fitness (log ratio)” value read?
**A.** The value was -3.31.

**Q.** With GGAUCUUCUCGAUCUACCAAAAAAGACAAAUCUGCUACAAAGCUUGAGAGCAUCUUCGGAUGCAGAGCCGGCAGCCUUCGGUGGCACGAUAGCGCCAACGUUCUCAACUAUGACACGCAAAACGCGUGCUCCGUUGAAAGGAGUUUAUCAUG [A17C C36U G68C G86A U139A] as the variant, how does the “polymerase ribozyme fitness (log ratio)” value read?
**A.** Its value is ≤ -4.2.

**Q.** With GGAUCUUCUCGAUCUACCAAAAAAGACAAAUCUGCCACAAAGCUUGAGAGCAUCUUCGGAUGCAGAGGCGGCAGCCUUCGGUGGCGCGAUACCGCCAACGUUCUCAACUAUGACACGCAAAACGCGUGCUCCGUUGAAUGGAGUUUAUCAUG [A17C G92C] as the variant, how does the “polymerase ribozyme fitness (log ratio)” value read?
**A.** Its value is 0.012.

**Q.** For GGAUCUUCUCGAUCUACCAAAAAAGAAAAAUCUGCCACAAAGCUUGAGAGCGUCUUCGGUUGCAGAGGUGGCAGCCUUCGGUGGAGCGAUAGCGGCAACGUUCUCAACUAUGACACGCAAAACGAGUGCUCCGUUGAAUGGAGUUUAUCAUG [A17C C27A A52G A60U C69U C85A C95G C125A], which “polymerase ribozyme fitness (log ratio)” value is on record?
**A.** The value was ≤ -4.2.

**Q.** With GGAUCUUCUCGAUCUACCAAAAAAGACAAAUCUGCUACAAAGCUUGGGAGCAUAUUCGGAUGCAGAGGCGGCAGCCUUCGGUGGAGCGAUAGCGCCAACGUUCUCAACUAUGACACGAAAAACGCGGGCUCCGCUGAAUGGAGUUUAUCAAG [A17C C36U A47G C54A C85A C118A U127G U134C U151A] as the variant, how does the “polymerase ribozyme fitness (log ratio)” value read?
**A.** Its value is ≤ -4.2.

**Q.** Which “polymerase ribozyme fitness (log ratio)” value does the source give for GGAUCUUCUCGAUCUACCAAAAAAGACAAAUCUGCCACAAAGCUUGAGAGCAUCUUCGGAUGCAGAGGCGGCAGCCUUCGGUGGCGCAAUGGCGCCAACGUUCUCAACUAUGACACGCAAAACGCGUGCUCCGUUGAAUGGAGUUUAACAUG [A17C G88A A91G U148A] here?
**A.** The value was -4.03.

**Q.** Which “polymerase ribozyme fitness (log ratio)” value does the source give for GGAUCUUCUCGAUCUACCAAAAAAGACAAAUCUGCCACAAAGCUUGAGAGCAUCUUCGGAUGCAGAGGCGGCAGCCUUCGGUGGCGCGAUAGCGUCAACGUUCUCAACUAUGACACGCUAAACGCGUGCUCCGUUGAAUGGAGUUUAUCGUG [A17C C95U A119U A150G] here?
**A.** The value was -1.7.

**Q.** With GGAUCUUCUCGAUCUACCAAAAAAGACAAAUCUGCCACAAAGCUUGAGAGCAUCUUCGGAUGCAGAGGCGGCAGCCUUCGGUGGCGCGAUAGCGCCAACGUUCUCAACUAUGACACGCAAAACGGAUGCUCCGUUGAAUGGAGUUUAUCAUG [A17C C125G G126A] as the variant, how does the “polymerase ribozyme fitness (log ratio)” value read?
**A.** Its value is -3.65.

**Q.** With GGAUCUUCUCGAUCUACCAAAAAAGACAAAUGUGCCACAAAGCUUGAGAGCAUAUUCGGAUGCAGAGGCGGCAGCGUUCAGUGGCGCGAUAGAGCAAACGUUCUCAACUAAGACACGCAAAACGCGUGCUCCGUUGAAUGGAGUUUAUCAUG [A17C C32G C54A C76G G80A C93A C96A U111A] as the variant, how does the “polymerase ribozyme fitness (log ratio)” value read?
**A.** The value was ≤ -4.2.

**Q.** Which “polymerase ribozyme fitness (log ratio)” value does the source give for GGAUCUUCUCGAUCUACCAAAAAAGACAAAUCUGCCACAAAGCUUGAGAGCAUCUUUGGAUGCAGAGGCGGCAGCCUUCGGCGGCGCGAUAGCGCCAACGUUCUCAACUAUGACACGCAAAACGCGUGCUCCGUUGAAUGGAGUUUAUCAUG [A17C C57U U82C] here?
**A.** Its value is -0.0541.

**Q.** With GGAUCUUCUCGAUCUACCAAAAAAGACAAAUUUGCCACAAAGCUUGAGAGCAUCUUCGGAUGCAGAGGCGGCAGCCUUCGGUGGCGCGAUAGCGCCAACGUUCUCAACUAUGACACGCAAAACGCGUGCUCCGUUGAAUGGAGUUUAUCAUG [A17C C32U] as the variant, how does the “polymerase ribozyme fitness (log ratio)” value read?
**A.** Its value is -1.61.

**Q.** For GGAUCUUCUCGAUCUACCAAAAAAGACAAAUCUGCCACAAAGCUUGAGAGCAUCAACGGAUGCAGAGGCGGCAGCCUUCGGUGGGGCGAUAGCGCCAACGUUCUCAACUAUGACGCGCAAAACGCGUGCUCCGUUGAAUGGAGUUUAUCAUG [A17C U55A U56A C85G A115G], which “polymerase ribozyme fitness (log ratio)” value is on record?
**A.** The value was -3.1.

**Q.** Which “polymerase ribozyme fitness (log ratio)” value does the source give for GGAUCUUCUCGAUCUACGAAAAAAGACAAAUCUGCCACAAAGCUUGAGAGCAUCUUCAGAUGCAGAGGGGGCAGCCUUCGGUGGUGCGAUAGCGCCAACGUUCUCAACUAUGACACGCAAAACGCGUGCUCCGUUGAAUGGAGUUUAUCAUG [A17C C18G G58A C69G C85U] here?
**A.** Its value is -2.39.

**Q.** With GGAUCUUCUCGAUCUACCAAAAAAGACAAAUCUGCCACAAAGCUUGAGAGCAUAUUCGGAUGCAGAGGCGGCAGCCUUCGGUGGCGCGAUAGCGCCAACGUUCUCAACUAUGACACGCAAAACGCGUGCUCCGUUGAAUGGAGUUUAUCAUG [A17C C54A] as the variant, how does the “polymerase ribozyme fitness (log ratio)” value read?
**A.** Its value is -1.11.

**Q.** With GGAUCUUCUCGAUCUACCAAAAAAGACAAAUCUGCCAAAAAGCUUGGGAGCAUCUUCGGAUGCAGAGGCGGCAGCCUUCGGUGGCGCGAUACCGCCAACGUUCUCAACUAUGACACGCAAAACGCGUGCUCCGUUGAAUGGAGUUUAUCAUG [A17C C38A A47G G92C] as the variant, how does the “polymerase ribozyme fitness (log ratio)” value read?
**A.** Its value is -0.622.

**Q.** Which “polymerase ribozyme fitness (log ratio)” value does the source give for GGAUCUUCUCGAUCUACCAAAAAAGACAAAUCUGCCACAAAGCUUGAGAGCAUCUUCGACUGCAGAGGCGGCAGCCUUCGCUGGCGCGAUAGCGUCAACGUUCUCAACUAUGACAUGCAAAACGCGUGCUCCGUUGAAUGGAGUUUAUCAUG [A17C G59A A60C G81C C95U C116U] here?
**A.** Its value is 0.238.

**Q.** For GGAUCUUCUCGAUCUACCAAAAAAGACAAAUCUGCCACAAAGCUUGAGAGCAUCUUCGGAUGCAGAGGCGGCAGCCUUCGGUGGCGCGAUAGCGACAACGUUGUCAAGUAUGACACGCAAAACGCGUGCUCCGUUGAAUGGAGUUUAUCAUG [A17C C95A C103G C108G], which “polymerase ribozyme fitness (log ratio)” value is on record?
**A.** Its value is ≤ -4.2.
